Measurements: article PMC11976700, “Engineering of Conserved Sequence Motif 1 Residues in Halohydrin Dehalogenase HheC Simultaneously Enhances Activity, Stability, and Enantioselectivity” (ACS Catalysis, 2025)
Substitutions are numbered along the chain they refer to. In names and notes the source's numbering stands. Where two headings read alike, the source gives them in different places.

How the values were obtained:
[1] = tested on: T1, OC(CCl)CCl; experiment: dehalogenation, halide release assay, Michaelis-Menten fit; type: biochemical, Agrobacterium tumefaciens; conditions: 25 mM Tris-SO4 pH 7.0, 30 °C
T1 construct: E. coli BL21(DE3); homotetramer
Description: (§1) dehalogenation, halide release assay, Michaelis-Menten fit on HheC

[2] = tested on: ClCC1CO1; experiment: purified protein; conditions: 2 mM MOPS-SO4 pH 7.0, 30 °C
[3] = substrate: OC(CCl)CCl; experiment: dehalogenation, halide release assay, Michaelis-Menten fit; type: biochemical, Agrobacterium tumefaciens; conditions: 25 mM Tris-SO4 pH 7.0, 30 °C
Description: as §1

[4] = substrate: ClCC1CO1; experiment: purified protein; conditions: 2 mM MOPS-SO4 pH 7.0, 30 °C, fixed nonsaturating azide (100 mM in table footnote, 60 mM in methods)
[5] = substrate: C1CCC2OC2C1; type: biochemical, Ilumatobacter coccineus; conditions: 2 mM MOPS-SO4 pH 7.0, 22 °C, fixed azide (100 mM in table footnote, 60 mM in methods)
[6] = substrate: C1CCC2OC2C1; type: biochemical, Ilumatobacter coccineus; conditions: 2 mM MOPS-SO4 pH 7.0, 22 °C, fixed azide (100 mM in table footnote, 60 mM in methods); remark: listed apart in the source
[7] = substrate: C1CCC2OC2C1; type: biochemical, Ilumatobacter coccineus; conditions: 2 mM MOPS-SO4 pH 7.0, 22 °C, fixed azide (100 mM in table footnote, 60 mM in methods); remark: listed apart in the source
[8] = substrate: C1CCC2OC2C1; type: biochemical, Ilumatobacter coccineus; conditions: 2 mM MOPS-SO4 pH 7.0, 22 °C, fixed 100 mM azide
[9] = fixed nonsaturating azide (100 mM in table footnote, 60 mM in methods)

HheC (Agrobacterium tumefaciens; F12Y)
Km [1]: 980 ± 190 µM
kcat [1]: 6.30 ± 0.26 s⁻¹
K0.5 [2, 9]: 14.2 ± 0.67 mM

HheC (Agrobacterium tumefaciens; G14A)
Km [1]: 920 ± 370 µM
kcat [1]: 0.05 ± 0.00 s⁻¹
K0.5 ([2]; fixed 100 mM azide): 49.5 ± 1.52 mM

HheC (Agrobacterium tumefaciens; T7S)
Km [1]: 810 ± 230 µM
kcat [1]: 1.37 ± 0.07 s⁻¹
K0.5 [2, 9]: 40.3 ± 6.88 mM

B1: HheC (Agrobacterium tumefaciens) (protein)
chain: MSTAIVTNVKHFGGMGSALRLSEAGHTVACHDESFKQKDELEAFAETYPQLKPMSEQEPAELIEAVTSAYGQVDVLVSNDIFAPEFQPIDKYAVEDYRGAVEALQIRPFALVNAVASQMKKRKSGHIIFITSATPFGPWKELSTYTSARAGACTLANALSKELGEYNIPVFAIGPNYLHSEDSPYFYPTEPWKTNPEHVAHVKKVTALQRLGTQKELGELVAFLASGSCDYLTGQVFWLAGGFPMIERWPGMPE
notes: E. coli BL21(DE3); homotetramer
Km [3]: 450 ± 140 µM
kcat [3]: 1.84 ± 0.11 s⁻¹
K0.5 [4]: 18.8 ± 1.24 mM

B2: HheG (Ilumatobacter coccineus YM16-304; T13S) (protein)
chain: MSNAENRPVALISMATGYVGPALARTMADRGFDLVLHGTAGDGTMVGVEESFDSQIADLAKRGADVLTISDVDLTTRTGNQSMIERVLERFGRLDSACLVTGLIVTGKFLDMTDDQWAKVKATNLDMVFHGLQAVLPPMVAAGAGQCVVFTSATGGRPDPMVSIYGGTRAGANGIVRAVGLEHARHGVQVNAIGTNYMDFPGFLKASRADGDPERRAMIEAQVPLRRLGTMDELSSVTAGLLDGSNRFQTGQFFDFSGGWGA
notes: as for B1
K0.5 [5]: 44.8 ± 1.29 mM

B3: HheG (Ilumatobacter coccineus YM16-304; Y18F) (protein)
chain: B2 chain with S13T, Y18F
notes: as for B1
K0.5 [6]: 66.4 ± 1.42 mM

B4: HheG (Ilumatobacter coccineus YM16-304) (protein)
chain: B2 chain with S13T
notes: as for B1
K0.5 [7]: 39.4 ± 2.69 mM

B5: HheG (Ilumatobacter coccineus YM16-304; G20A) (protein)
chain: B2 chain with S13T, G20A
notes: as for B1
K0.5 [8]: 42.2 ± 3.64 mM
